T1: recombinant human IL-31 (hIL-31, BHK produced, A1277F, zcytor17lig CEE) (human, UniProt Q6EBC2 24-164)
T1 construct: also called recombinant hIL-31
T1 sequence: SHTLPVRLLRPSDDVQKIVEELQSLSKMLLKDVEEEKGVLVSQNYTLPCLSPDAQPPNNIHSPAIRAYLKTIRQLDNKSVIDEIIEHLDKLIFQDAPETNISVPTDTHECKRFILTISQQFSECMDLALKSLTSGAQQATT

T2: recombinant human IL-31 (as used in the NHK STAT3 phosphorylation assay of Example 5) (human, UniProt Q6EBC2 24-164, limits assumed)
T2 sequence: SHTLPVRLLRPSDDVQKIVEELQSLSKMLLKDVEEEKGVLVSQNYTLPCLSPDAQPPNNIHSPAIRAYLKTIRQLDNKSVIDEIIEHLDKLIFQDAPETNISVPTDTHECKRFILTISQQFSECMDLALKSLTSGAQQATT


How the values were obtained:
[1] = biological target: T1, recombinant human IL-31 (hIL-31, BHK …); assay: SPR (Biacore), against parent 292.12.3.1
Method: (§1) The purified monoclonal antibodies were immobilized in individual flow cells on a CM5 type sensor chip. Immobilizations were performed using a standard amine coupling procedure, aiming for an immobilization level of 500 Resonance Units (RU). The antibodies were diluted to 1-5 ug/ml in 10 mM NaAc pH 4.5.
(§2) HPS-EP pH 7.4 (10 mM HEPES, 150 mM NaCl, 3 mM EDTA and 0.005% Polysorbat P20) was used as running buffer, and diluents for the recombinant hIL-31 (hIL-31, BHK produced, A1277F, zcytor17lig CEE). The hIL-31 was tested in a 3-fold dilution series from 333.3 nM to 1.4 nM. Association (injection) was 4 min., followed by a 20 min. dissociation (wash) period. Flow rate was 50 ul/min. Experiments were performed at 25OC. Regeneration of the surface was accomplished by injection of 30 sec. pulse of 10 mM Glycin-HCl pH 1.8 or 1M formic acid, at a 30 ul/min flow rate. Detection in all flow cells simultaneously. Flow cell #1 contained no immobilized antibody, and was used for subtraction of background and bulk.
(§3) The kinetic parameters were calculated by global fitting of the data using a 1:1 langmuir binding model. Data was inspected for mass-transport limitations prior to calculation of the kinetic parameters. In some experiments the Rmax was fitted locally, and the RI constant at 0.

[2] = biological target: T1, recombinant human IL-31 (hIL-31, BHK …); assay: SPR (Biacore), mAb amine-coupled to CM5 chip, hIL-31 injected
Method: as §1, §2, §3

[3] = biological target: recombinant human IL-31 (C108S), produced in E. coli by ZymoGenetics, MW 18 kDa (human), Q6EBC2; assay: cell-based or functional assay
[4] = biological target: T2, recombinant human IL-31 (as used in the …); assay: cell-based or functional assay

Row | Relative potency loss (KD) [1] | Relative potency loss (kd) [1] | Kd [2] [nM] | koff [2] [s⁻¹] | kon [2] [M⁻¹ s⁻¹] | Average Fold loss in potency relative to 292.12.3.1, BAF-3(hIL-31R) proliferation assay [3] [fold] | Average Potency (IC50), inhibition of hIL-31-induced proliferation of BAF-3(hIL-31R) cells [3] [nM] | IC50, IL-31-induced STAT3 phosphorylation in NHK, Exp 10 [4] [nM] | Binder
1 | ~0.7 x to parent | ~1.5 x to parent | 1.6 | 0.0001 | 64000 | 75.1 | 62.1 | 12 | humanized 292.12.3.1 construct clone 35 (12VH1-gly + HC(F29L, R94F)) (antibody, human IgG4, V domains shown) VH: QVQLVQSGAEVKKPGASVKVSCKASGYTLTRYWMQWVRQAPGQGLEWMGAIYPGDGDTRYSQKFQGRVTMTRDTSISTVYMELSSLRSEDTAVYYCAFPDGYYAAPYGMDYWGQGTLVTVSS VL: DIQMTQSPSSLSASVGDRVTITCRASGNIHNYLAWYQQKPGKVPKLLIYNAKTLADGVPSRFSGSGSGTDFTLTISSLQPEDVATYYCQHFWSTPWTFGQGTKVEIKR
2 | ~0.5 x to parent | ~1.5 x to parent | 1.6 | 0.000108 | 68000 |  | 14.1 | 8.95 | humanized 292.12.3.1 construct clone 36 (12VH1(germ)-gly + HC(F29L, T73K, R94F) + LC(F71Y)) (antibody, human IgG4, V domains shown) VH: QVQLVQSGAEVKKPGASVKVSCKASGYTLTRYWMQWVRQAPGQGLEWMGAIYPGDGDTRYSQKFQGRVTMTRDKSTSTVYMELSSLRSEDTAVYYCAFPDGYYAAPYGMDYWGQGTLVTVSS VL: DIQMTQSPSSLSASVGDRVTITCRASGNIHNYLAWYQQKPGKVPKLLIYNAKTLADGVPSRFSGSGSGTDYTLTISSLQPEDVATYYCQHFWSTPWTFGQGTKVEIKR
